Here are results for three proteins from PMC9074039, “Molecular analysis and essentiality of Aro1 shikimate biosynthesis multi-enzyme in Candida albicans” (Life Science Alliance, 2022).

As usually defined, the stoichiometry N is a count of units in the complex or per binding partner.

Series [1] deals with the molecule itself. The experiment in a line: SEC; Superdex 200, 150 mM NaCl, 10 mM Hepes pH 7.5; tag-free Aro1 purified from C. albicans. A general note: SEC sorts molecules by how far they enter the pores of the column.
Series [2] deals with the molecule itself. The experiment in a line: crystal structure; Aro1_(SK-DHQase-DHSD), sitting drop, room temperature; four copies in the asymmetric unit.
Series [3] deals with the molecule itself. Kind of series: crystal structure; Aro1_(DHQS) with 2 mM NADH and 0.5 mM ZnCl2, sitting drop, room temperature; two copies in the asymmetric unit.

B1: full-length C. albicans Aro1 (enzyme, UniProt Q5AME2 1-1551, looked up)
chain: MSIEKVPILGKETIHVGYGIADHIVREVIANLASSTYVIVTDTNMARTPQYSKLTDDFKTNLSEKRPESRLLTYCVSPGENNKNRATKAAVEDFLLQQGCTRDTVILAVGGGVIGDMIGFVAATFMRGVRVVQVPTTLLAMVDSSVGGKTAIDTPLGKNFIGAFHQPEYVFCDVSFLETLPARQFINGMAEVVKTAAIWNEEEFTRLENFSKKFLSVVTSKKPDLQSIKAELVKTVLESVRVKAGVVSSDEKEAGLRNLLNFGHTIGHAIEAVLTPEALHGECVSIGMIKEAELSRYLGILPPVAVARLSKCLVAYGLPVSIDDKEFLKKVGPKRHYVEIDILLKKMAIDKKNDGSKIRCVLLEKIGKCYQLKAHQVSKQDLSFVLTDEVLVHPFTNPPKENIIVPPGSKSISNRALILAALGNGTVRVKNLLHSDDTKHMLDAVASLKGAEISTEDNGETIVVKGNGGNLVTSGEELYLGNAGTASRFLTTVASLVGKSQASDDVILTGNARMQERPIGPLVDALGSNGSEIEYLNKQGSLPLKISAGNGLKGGRIELAATISSQYVSSILMCAPYAKEPVTLALVGGKPISQLYIDMTCAMMKSFGIEVTKSTTEEYTYHIPKGTYKNPSEYVIESDASSATYPLAFAAMTGTSCTIPNIGSSSLQGDAKFAVDVLKPMGCKVEQTTTSTTVTGPPRGHLKPLPHVDMEPMTDAFLTASVVAAVAKGGSSTSITGIANQRVKECNRIEAMVTELAKFGVPANELPDGIEIHGIDIEDLKTPEISKRGVSSYDDHRVAMSFSLLAGLCKEPVLILERSTTGKTWPGWWDILHSKFKIELDGYEPPFNTDKHVDKSSDKSIIVIGMRGTGKSTLSEWLASFLGFKMLDMDKYLEEKLGTGIKSLIKAKGWEYFRQEEAIVAKECFTKFSKGYVLSTGGGIVEGEDARQQLKSYADNGGIVLHLHRDLDETVTFLAADTTRPAYSSEVQEVWLRREKWYHECSNYHFYSSHCSTEDEFNHLRRSFVNYIKLITGAERPVVPAGRSAAVVLTSPDLNEVVGDLESITIGADAVELRVDLFKDTSAEFVAAQIAVIRKHADLPIIYTVRTVSQGGKFPDENVDELKSLLLLGIRLGVAYVDLQLTAPNELIEEISSKKGFTRVIGTYQDINGELKWNNVEWKNKYNQGVSMNADIVRLVGKANSIQDNLDLENFKKQNTLKPLIAFNLGSQGKLSQVLNGTFTPISHKLLPNDEEFLTIGELNQTYFDIGGFTAKKFWVIGSPIEHSRSPNLHNAGYKALNLPYQFGRFEATDVDVVYDNLINKPDFGGLAITMPLKLDIMKFATKLSDAAETIGAVNTLIPIEGGYFGDNTDWVGISNSFIRAGVPPKSSSNGLVVGAGGTSRAAIYALHQMGCAKIYLVNRTAAKLEELVKSFPKDYNLEIVETEQQADKASKVSLAVSCIPADKPLDGEVLKKIERILSNGSEQSAGFKPTLLEASYKPRVTPIMKLTEEQYKWKVIPGVEMLVNQGDRQFKLHTGFTAPYEIIHRAVVEE
notes: Aro1 pentafunctional shikimate pathway multi-enzyme (DHQS, EPSPS, SK, DHQase, DHSD domains), Candida albicans, full length, residues 1-1551; Expressed from the tagged genomic ARO1 alleles under the tetO promoter in C. albicans; the His6TEV tag was removed with TEV protease before SEC and cryo-EM; also called His6TEVAro1; wild-type Aro1; source: C. albicans CaLC6830 …
With B1, the “stoichiometry N” value in series [1] was 2.

B2: Aro1_(SK-DHQase-DHSD), C. albicans Aro1 residues 845-1,551 (SK, DHQase and DHSD domains) (domain or fragment, UniProt Q5AME2 845-1551, looked up)
chain: PPFNTDKHVDKSSDKSIIVIGMRGTGKSTLSEWLASFLGFKMLDMDKYLEEKLGTGIKSLIKAKGWEYFRQEEAIVAKECFTKFSKGYVLSTGGGIVEGEDARQQLKSYADNGGIVLHLHRDLDETVTFLAADTTRPAYSSEVQEVWLRREKWYHECSNYHFYSSHCSTEDEFNHLRRSFVNYIKLITGAERPVVPAGRSAAVVLTSPDLNEVVGDLESITIGADAVELRVDLFKDTSAEFVAAQIAVIRKHADLPIIYTVRTVSQGGKFPDENVDELKSLLLLGIRLGVAYVDLQLTAPNELIEEISSKKGFTRVIGTYQDINGELKWNNVEWKNKYNQGVSMNADIVRLVGKANSIQDNLDLENFKKQNTLKPLIAFNLGSQGKLSQVLNGTFTPISHKLLPNDEEFLTIGELNQTYFDIGGFTAKKFWVIGSPIEHSRSPNLHNAGYKALNLPYQFGRFEATDVDVVYDNLINKPDFGGLAITMPLKLDIMKFATKLSDAAETIGAVNTLIPIEGGYFGDNTDWVGISNSFIRAGVPPKSSSNGLVVGAGGTSRAAIYALHQMGCAKIYLVNRTAAKLEELVKSFPKDYNLEIVETEQQADKASKVSLAVSCIPADKPLDGEVLKKIERILSNGSEQSAGFKPTLLEASYKPRVTPIMKLTEEQYKWKVIPGVEMLVNQGDRQFKLHTGFTAPYEIIHRAVVEE
notes: Aro1, Candida albicans, residues 845-1551: SK domain (857-1032), linker (1033-1038), DHQase domain (1039-1267), DHSD domain (1268-1551); Four copies in the asymmetric unit; also called Aro1_(SK-DHQ-DHSD); source: E. coli BL21(DE3) Gold, purified (Ni-NTA, TEV cleavage, second Ni-NTA); not shown: His6, N-terminal, cleaved
As to B2, in series [2], the binding result is listed as “binds”.

B3: Aro1_(DHQS), C. albicans Aro1 residues 1-387 (DHQS domain) (domain or fragment, UniProt Q5AME2 1-387, looked up)
chain: MSIEKVPILGKETIHVGYGIADHIVREVIANLASSTYVIVTDTNMARTPQYSKLTDDFKTNLSEKRPESRLLTYCVSPGENNKNRATKAAVEDFLLQQGCTRDTVILAVGGGVIGDMIGFVAATFMRGVRVVQVPTTLLAMVDSSVGGKTAIDTPLGKNFIGAFHQPEYVFCDVSFLETLPARQFINGMAEVVKTAAIWNEEEFTRLENFSKKFLSVVTSKKPDLQSIKAELVKTVLESVRVKAGVVSSDEKEAGLRNLLNFGHTIGHAIEAVLTPEALHGECVSIGMIKEAELSRYLGILPPVAVARLSKCLVAYGLPVSIDDKEFLKKVGPKRHYVEIDILLKKMAIDKKNDGSKIRCVLLEKIGKCYQLKAHQVSKQDLSFVLT
notes: Aro1, Candida albicans, residues 1-387, 3-dehydroquinate synthase (DHQS) domain; Crystallised with NADH and ZnCl2; source: E. coli BL21(DE3) Gold, purified (Ni-NTA, TEV cleavage, second Ni-NTA); not shown: His6, N-terminal, cleaved
In the case of B3, in series [3], the binding result is recorded as “binds”.
